Measured values from the supplement of paper PMC10065799, “High-throughput profiling of sequence recognition by tyrosine kinases and SH2 domains using bacterial peptide display” (eLife, 2023).
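Further: 11-residue human phosphosite peptides and single-mutation variants displayed on the E. coli surface, counted by deep sequencing, each peptide's frequency after selection divided by its frequency in the unselected input library; frequency after pTyr selection over input frequency; kinase dosed for 20-30% of maximal phosphorylation in three min.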

The sequences below were run on c-Abl (mouse) (assay: phosphorylation enrichment, bacterial display (enrichment ratio); higher = better substrate or ligand; peptides without Tyr show the background).
For MANFVYKAGPS [MAML2_Y515_M514V_YF], the phosphorylation enrichment was 0.417. Sequence NSNAAYEQSHF [LRIF1_Y714] has a phosphorylation enrichment of 0.574. In the case of ELQDDYEDTME [SLC4A1_Y8_M11T], the phosphorylation enrichment is reported as 1. Work on GDPTEYFSTAI [IGSF22_Y501_YF] yielded a phosphorylation enrichment of 0.745. QMQNPYSRHSS [MUC13_Y501] showed a phosphorylation enrichment of 0.57. RKMSSYAFFVQ [HMGB1_Y16_G11R] gave a phosphorylation enrichment of 0.667. DEDEEYEFMNR [ERBB3_Y1197_YF] gave a phosphorylation enrichment of 0.692. For RRIHSYRCHLW [VHL_Y112_G114C], the phosphorylation enrichment was 0.822. FSQQTYYRVSN [ABCD1_Y180] was tested, and the phosphorylation enrichment was 0.72. Work on ANYTEYVATRW [CDKL5_Y171] yielded a phosphorylation enrichment of 0.948. In the case of FVFSFYHAFSG [ACTN4_Y265_S262F_YF], the phosphorylation enrichment is reported as 0.994. Work on FADIAYNFRDG [PAH_Y166_H170D_YF] yielded a phosphorylation enrichment of 0.551. With SVTWTYSPALN [TP53_Y126_C124W] the phosphorylation enrichment was 0.698. With AALSAYAPQRP [PTPRN2_Y249_A251P] the phosphorylation enrichment was 0.791. Work on TDLAYYLVCKG [ASL_Y376_R379C] yielded a phosphorylation enrichment of 0.903. In the case of CTTLHYNYMCN [TP53_Y234_I232L], the phosphorylation enrichment is reported as 0.675. Work on LSSETYVKSYT [F5_Y2149_M2148T] yielded a phosphorylation enrichment of 0.908. Sequence TNDMRYPMKSE [TGDS_Y302] has a phosphorylation enrichment of 0.557. ACQGKYTPSGQ [ALDOA_Y343] showed a phosphorylation enrichment of 0.693. TFQFKYPEGSS [TGM4_Y440_E437Q_YF] showed a phosphorylation enrichment of 0.564. Work on TVLGEYALPKG [CYP24A1_Y407] yielded a phosphorylation enrichment of 6.83. WAMPAYNRSKL [WWOX_Y293_L291P] gave a phosphorylation enrichment of 0.339. In the case of DHLASYLDKVR [KRT10_Y160_R156H], the phosphorylation enrichment is reported as 0.473. Sequence VKPRRYRPGTV [H3-5_Y41_H39R] has a phosphorylation enrichment of 0.512. With SIKDKYVMALF [KCNH2_Y611_T613M_YF] the phosphorylation enrichment was 0.558. In the case of EKEKEYMLPLD [DNM2_Y563_K562E], the phosphorylation enrichment is reported as 0.479. HAVYVYDICHV [TWNK_Y508] showed a phosphorylation enrichment of 1.18. Sequence KRLKDYLTVLQ [USP25_Y425] has a phosphorylation enrichment of 0.783. In the case of RLLVVYTWTQR [HBB_Y36_P37T], the phosphorylation enrichment is reported as 0.862. IGEGTYGVLFK [CDK2_Y15_V18L_YF] gave a phosphorylation enrichment of 0.708. EAIAKYDFKAT [GRB2_Y7] gave a phosphorylation enrichment of 0.618. TGHKGYVAFLE [CARD9_Y76] was tested, and the phosphorylation enrichment was 0.617. NREGVYTVSAP [TGFBI_Y537_F540S] showed a phosphorylation enrichment of 0.565.

Each sequence was assayed on AncSZ in the same assay as above.
In the case of MANFVYKAGPS [MAML2_Y515_M514V_YF], the phosphorylation enrichment is reported as 0.681. Work on NSNAAYEQSHF [LRIF1_Y714] yielded a phosphorylation enrichment of 0.575. In the case of ELQDDYEDTME [SLC4A1_Y8_M11T], the phosphorylation enrichment is reported as 1.47. GDPTEYFSTAI [IGSF22_Y501_YF] showed a phosphorylation enrichment of 1.54. Sequence QMQNPYSRHSS [MUC13_Y501] has a phosphorylation enrichment of 0.521. In the case of RKMSSYAFFVQ [HMGB1_Y16_G11R], the phosphorylation enrichment is reported as 1.01. For DEDEEYEFMNR [ERBB3_Y1197_YF], the phosphorylation enrichment was 1.26. Sequence RRIHSYRCHLW [VHL_Y112_G114C] has a phosphorylation enrichment of 0.967. FSQQTYYRVSN [ABCD1_Y180] showed a phosphorylation enrichment of 0.831. ANYTEYVATRW [CDKL5_Y171] gave a phosphorylation enrichment of 1.04. FVFSFYHAFSG [ACTN4_Y265_S262F_YF] gave a phosphorylation enrichment of 0.963. With FADIAYNFRDG [PAH_Y166_H170D_YF] the phosphorylation enrichment was 0.695. SVTWTYSPALN [TP53_Y126_C124W] gave a phosphorylation enrichment of 1.31. Sequence AALSAYAPQRP [PTPRN2_Y249_A251P] has a phosphorylation enrichment of 0.853. For TDLAYYLVCKG [ASL_Y376_R379C], the phosphorylation enrichment was 1.46. In the case of CTTLHYNYMCN [TP53_Y234_I232L], the phosphorylation enrichment is reported as 0.858. Sequence LSSETYVKSYT [F5_Y2149_M2148T] has a phosphorylation enrichment of 0.946. Sequence TNDMRYPMKSE [TGDS_Y302] has a phosphorylation enrichment of 0.675. In the case of ACQGKYTPSGQ [ALDOA_Y343], the phosphorylation enrichment is reported as 0.598. TFQFKYPEGSS [TGM4_Y440_E437Q_YF] showed a phosphorylation enrichment of 0.841. In the case of TVLGEYALPKG [CYP24A1_Y407], the phosphorylation enrichment is reported as 1.15. With WAMPAYNRSKL [WWOX_Y293_L291P] the phosphorylation enrichment was 0.457. Sequence DHLASYLDKVR [KRT10_Y160_R156H] has a phosphorylation enrichment of 0.585. VKPRRYRPGTV [H3-5_Y41_H39R] was tested, and the phosphorylation enrichment was 0.622. SIKDKYVMALF [KCNH2_Y611_T613M_YF] was tested, and the phosphorylation enrichment was 0.664. EKEKEYMLPLD [DNM2_Y563_K562E] gave a phosphorylation enrichment of 1.1. Sequence HAVYVYDICHV [TWNK_Y508] has a phosphorylation enrichment of 1.68. In the case of KRLKDYLTVLQ [USP25_Y425], the phosphorylation enrichment is reported as 0.679. Sequence RLLVVYTWTQR [HBB_Y36_P37T] has a phosphorylation enrichment of 1.81. IGEGTYGVLFK [CDK2_Y15_V18L_YF] gave a phosphorylation enrichment of 0.85. EAIAKYDFKAT [GRB2_Y7] showed a phosphorylation enrichment of 0.658. Work on TGHKGYVAFLE [CARD9_Y76] yielded a phosphorylation enrichment of 0.674. For NREGVYTVSAP [TGFBI_Y537_F540S], the phosphorylation enrichment was 0.757.

Each sequence was assayed against Hck (UniProt P08631) in the same assay as above.
Chain of Hck (P08631 whole entry, looked up): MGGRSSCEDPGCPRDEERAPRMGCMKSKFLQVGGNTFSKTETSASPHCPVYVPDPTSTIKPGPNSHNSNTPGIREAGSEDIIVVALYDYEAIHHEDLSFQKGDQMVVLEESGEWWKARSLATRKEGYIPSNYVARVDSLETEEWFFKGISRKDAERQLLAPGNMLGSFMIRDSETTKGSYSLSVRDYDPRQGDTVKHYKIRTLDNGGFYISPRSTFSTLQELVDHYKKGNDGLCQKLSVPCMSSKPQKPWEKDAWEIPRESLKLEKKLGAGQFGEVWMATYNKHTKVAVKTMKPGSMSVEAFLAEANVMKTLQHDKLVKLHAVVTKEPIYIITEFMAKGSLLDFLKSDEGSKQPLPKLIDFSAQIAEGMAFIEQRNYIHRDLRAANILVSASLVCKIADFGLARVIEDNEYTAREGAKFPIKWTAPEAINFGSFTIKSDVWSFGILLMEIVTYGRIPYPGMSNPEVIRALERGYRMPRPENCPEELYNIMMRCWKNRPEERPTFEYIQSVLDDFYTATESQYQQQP
MANFVYKAGPS [MAML2_Y515_M514V_YF] was tested, and the phosphorylation enrichment was 0.499. NSNAAYEQSHF [LRIF1_Y714] showed a phosphorylation enrichment of 0.445. For ELQDDYEDTME [SLC4A1_Y8_M11T], the phosphorylation enrichment was 0.649. In the case of GDPTEYFSTAI [IGSF22_Y501_YF], the phosphorylation enrichment is reported as 0.498. With QMQNPYSRHSS [MUC13_Y501] the phosphorylation enrichment was 0.544. Sequence RKMSSYAFFVQ [HMGB1_Y16_G11R] has a phosphorylation enrichment of 0.466. Sequence DEDEEYEFMNR [ERBB3_Y1197_YF] has a phosphorylation enrichment of 0.579. RRIHSYRCHLW [VHL_Y112_G114C] was tested, and the phosphorylation enrichment was 0.629. FSQQTYYRVSN [ABCD1_Y180] showed a phosphorylation enrichment of 3.2. ANYTEYVATRW [CDKL5_Y171] showed a phosphorylation enrichment of 0.886. For FVFSFYHAFSG [ACTN4_Y265_S262F_YF], the phosphorylation enrichment was 0.525. With FADIAYNFRDG [PAH_Y166_H170D_YF] the phosphorylation enrichment was 0.464. SVTWTYSPALN [TP53_Y126_C124W] showed a phosphorylation enrichment of 0.467. AALSAYAPQRP [PTPRN2_Y249_A251P] showed a phosphorylation enrichment of 0.529. For TDLAYYLVCKG [ASL_Y376_R379C], the phosphorylation enrichment was 0.75. For CTTLHYNYMCN [TP53_Y234_I232L], the phosphorylation enrichment was 0.547. Work on LSSETYVKSYT [F5_Y2149_M2148T] yielded a phosphorylation enrichment of 0.529. TNDMRYPMKSE [TGDS_Y302] showed a phosphorylation enrichment of 0.438. ACQGKYTPSGQ [ALDOA_Y343] was tested, and the phosphorylation enrichment was 0.46. With TFQFKYPEGSS [TGM4_Y440_E437Q_YF] the phosphorylation enrichment was 0.491. TVLGEYALPKG [CYP24A1_Y407] showed a phosphorylation enrichment of 0.565. WAMPAYNRSKL [WWOX_Y293_L291P] showed a phosphorylation enrichment of 0.263. DHLASYLDKVR [KRT10_Y160_R156H] showed a phosphorylation enrichment of 0.439. For VKPRRYRPGTV [H3-5_Y41_H39R], the phosphorylation enrichment was 0.5. For SIKDKYVMALF [KCNH2_Y611_T613M_YF], the phosphorylation enrichment was 0.496. In the case of EKEKEYMLPLD [DNM2_Y563_K562E], the phosphorylation enrichment is reported as 0.469. HAVYVYDICHV [TWNK_Y508] gave a phosphorylation enrichment of 4.08. Sequence KRLKDYLTVLQ [USP25_Y425] has a phosphorylation enrichment of 0.322. Sequence RLLVVYTWTQR [HBB_Y36_P37T] has a phosphorylation enrichment of 0.915. In the case of IGEGTYGVLFK [CDK2_Y15_V18L_YF], the phosphorylation enrichment is reported as 6.57. With EAIAKYDFKAT [GRB2_Y7] the phosphorylation enrichment was 0.387. For TGHKGYVAFLE [CARD9_Y76], the phosphorylation enrichment was 0.494. NREGVYTVSAP [TGFBI_Y537_F540S] gave a phosphorylation enrichment of 2.34.

The sequences below were run against FGFR3 (UniProt P22607) in the same assay as above.
Chain of FGFR3 (P22607 whole entry, looked up): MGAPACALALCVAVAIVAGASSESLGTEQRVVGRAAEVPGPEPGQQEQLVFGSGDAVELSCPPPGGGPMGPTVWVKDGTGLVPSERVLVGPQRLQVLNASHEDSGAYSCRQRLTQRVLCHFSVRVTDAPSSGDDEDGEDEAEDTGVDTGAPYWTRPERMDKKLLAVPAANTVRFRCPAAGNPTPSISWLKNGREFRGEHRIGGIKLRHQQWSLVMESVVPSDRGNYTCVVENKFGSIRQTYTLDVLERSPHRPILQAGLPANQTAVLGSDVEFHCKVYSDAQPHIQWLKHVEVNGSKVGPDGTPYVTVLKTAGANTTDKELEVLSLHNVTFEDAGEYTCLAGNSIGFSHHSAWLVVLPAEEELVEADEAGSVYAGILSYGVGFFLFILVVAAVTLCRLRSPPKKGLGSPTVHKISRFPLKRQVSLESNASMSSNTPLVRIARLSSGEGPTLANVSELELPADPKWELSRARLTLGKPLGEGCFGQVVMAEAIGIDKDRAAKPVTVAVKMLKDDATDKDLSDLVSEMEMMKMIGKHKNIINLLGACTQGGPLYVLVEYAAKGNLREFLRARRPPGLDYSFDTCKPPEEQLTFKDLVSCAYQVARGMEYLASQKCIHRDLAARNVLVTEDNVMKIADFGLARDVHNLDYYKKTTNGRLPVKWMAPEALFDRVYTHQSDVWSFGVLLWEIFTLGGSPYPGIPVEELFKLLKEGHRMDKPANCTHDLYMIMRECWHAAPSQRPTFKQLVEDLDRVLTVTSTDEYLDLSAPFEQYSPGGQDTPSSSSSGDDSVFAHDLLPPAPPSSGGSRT
MANFVYKAGPS [MAML2_Y515_M514V_YF] showed a phosphorylation enrichment of 0.469. Work on NSNAAYEQSHF [LRIF1_Y714] yielded a phosphorylation enrichment of 0.55. Sequence ELQDDYEDTME [SLC4A1_Y8_M11T] has a phosphorylation enrichment of 0.972. For GDPTEYFSTAI [IGSF22_Y501_YF], the phosphorylation enrichment was 0.936. Work on QMQNPYSRHSS [MUC13_Y501] yielded a phosphorylation enrichment of 0.495. RKMSSYAFFVQ [HMGB1_Y16_G11R] gave a phosphorylation enrichment of 0.737. Work on DEDEEYEFMNR [ERBB3_Y1197_YF] yielded a phosphorylation enrichment of 0.788. RRIHSYRCHLW [VHL_Y112_G114C] showed a phosphorylation enrichment of 0.641. With FSQQTYYRVSN [ABCD1_Y180] the phosphorylation enrichment was 4.51. Sequence ANYTEYVATRW [CDKL5_Y171] has a phosphorylation enrichment of 2.27. With FVFSFYHAFSG [ACTN4_Y265_S262F_YF] the phosphorylation enrichment was 0.693. Work on FADIAYNFRDG [PAH_Y166_H170D_YF] yielded a phosphorylation enrichment of 0.613. SVTWTYSPALN [TP53_Y126_C124W] was tested, and the phosphorylation enrichment was 0.862. AALSAYAPQRP [PTPRN2_Y249_A251P] gave a phosphorylation enrichment of 0.584. With TDLAYYLVCKG [ASL_Y376_R379C] the phosphorylation enrichment was 2.33. With CTTLHYNYMCN [TP53_Y234_I232L] the phosphorylation enrichment was 0.745. LSSETYVKSYT [F5_Y2149_M2148T] showed a phosphorylation enrichment of 0.582. In the case of TNDMRYPMKSE [TGDS_Y302], the phosphorylation enrichment is reported as 0.523. In the case of ACQGKYTPSGQ [ALDOA_Y343], the phosphorylation enrichment is reported as 0.734. TFQFKYPEGSS [TGM4_Y440_E437Q_YF] showed a phosphorylation enrichment of 0.722. TVLGEYALPKG [CYP24A1_Y407] showed a phosphorylation enrichment of 0.562. WAMPAYNRSKL [WWOX_Y293_L291P] was tested, and the phosphorylation enrichment was 0.324. Sequence DHLASYLDKVR [KRT10_Y160_R156H] has a phosphorylation enrichment of 0.469. With VKPRRYRPGTV [H3-5_Y41_H39R] the phosphorylation enrichment was 0.466. Sequence SIKDKYVMALF [KCNH2_Y611_T613M_YF] has a phosphorylation enrichment of 0.574. Sequence EKEKEYMLPLD [DNM2_Y563_K562E] has a phosphorylation enrichment of 0.604. Work on HAVYVYDICHV [TWNK_Y508] yielded a phosphorylation enrichment of 1.41. With KRLKDYLTVLQ [USP25_Y425] the phosphorylation enrichment was 0.522. Sequence RLLVVYTWTQR [HBB_Y36_P37T] has a phosphorylation enrichment of 0.941. IGEGTYGVLFK [CDK2_Y15_V18L_YF] gave a phosphorylation enrichment of 0.606. EAIAKYDFKAT [GRB2_Y7] was tested, and the phosphorylation enrichment was 0.528. TGHKGYVAFLE [CARD9_Y76] gave a phosphorylation enrichment of 0.507. Sequence NREGVYTVSAP [TGFBI_Y537_F540S] has a phosphorylation enrichment of 0.523.
